Test results taken from article PMC4974639, “Crystal structures of APOBEC3G N-domain alone and its complex with DNA”.

Key:
[1] = target: rA3G-CD1 Y124A (Macaca mulatta (rhesus macaque), UniProt M1GSK9 1-138+=AEAG+147-196, Y124A;internal_change); test: ITC; ITC: 100 mM NaCl, 50 mM HEPES pH 7.5, 25 C; EMSA: 60 mM HEPES pH 7.5, 100 mM NaCl, on ice 10 min, native PAGE; details: protein: recombinant; tags: GST tag removed with PreScission (pGEX-6P-1)
[2] = target: rA3G-CD1 FWKL mutant (Macaca mulatta (rhesus macaque), UniProt M1GSK9 1-138+=AEAG+147-196, F126Y;W127S;K180S;L184S;internal_change); test: as above; details: protein: recombinant; tags: GST tag removed with PreScission (pGEX-6P-1)
Chain of rA3G-CD1 FWKL mutant (M1GSK9 entry or part of it F126Y;W127S;K180S;L184S/| mutant): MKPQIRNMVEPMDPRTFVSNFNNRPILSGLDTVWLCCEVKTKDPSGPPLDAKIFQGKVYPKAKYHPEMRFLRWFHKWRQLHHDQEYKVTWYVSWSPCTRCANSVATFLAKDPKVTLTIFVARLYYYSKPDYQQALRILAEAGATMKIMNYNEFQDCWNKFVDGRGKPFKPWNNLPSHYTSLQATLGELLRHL

[3] = target: T1, rA3G-CD1 (loop-8 mutant) (Macaca mulatta (rhesus macaque), UniProt M1GSK9 1-138+=AEAG+147-196, internal_change); test: ITC; n=0.83; ITC: 100 mM NaCl, 50 mM HEPES pH 7.5, 25 C; EMSA: 60 mM HEPES pH 7.5, 100 mM NaCl, on ice 10 min, native PAGE; details: protein: recombinant; tags: GST tag removed with PreScission (pGEX-6P-1); chain copies: 2
T1 sequence (M1GSK9 entry or part of it | mutant): as the sequence (M1GSK9 entry or part of it F126Y;W127S;K180S;L184S/| mutant) above, with Y126F, S127W, S176K, S180L counted along it

[4] = target: T1, rA3G-CD1 (loop-8 mutant); test: EMSA; ITC: 100 mM NaCl, 50 mM HEPES pH 7.5, 25 C; EMSA: 60 mM HEPES pH 7.5, 100 mM NaCl, on ice 10 min, native PAGE; details: protein: recombinant, tags: GST tag removed with PreScission (pGEX-6P-1), chain copies: 2
[5] = target: T1, rA3G-CD1 (loop-8 mutant); test: ITC; n=1.47; ITC: 100 mM NaCl, 50 mM HEPES pH 7.5, 25 C; EMSA: 60 mM HEPES pH 7.5, 100 mM NaCl, on ice 10 min, native PAGE; details: protein: recombinant; tags: GST tag removed with PreScission (pGEX-6P-1); chain copies: 2

Chain of rA3G-CD1 Y124A (M1GSK9 entry or part of it Y124A/| Y124A Y124A): as the sequence (M1GSK9 entry or part of it F126Y;W127S;K180S;L184S/| mutant) above, with Y124A, Y126F, S127W, S176K, S180L counted along it

Row | Binder | binding result [1] | binding result [2] | further results
1 | UAUUCAUUAU (ssRNA) [10 nt RNA] | no binding | no binding | Kd [3]: 1490 ± 180 nM
2 | ATTATTATTATTTATCCCTATTTATATTTATTGTTATTGTTATTGTTATA (ssDNA) [50 nt ssDNA] | – | – | binding result ([4]; label: 5'-FAM (EMSA)): binds
3 | TTTTTTTTTT (ssDNA) [10 nt poly-dT ssDNA] | no binding | no binding | Kd [5]: 1570 ± 310 nM
4 | AUUAUUAUUAUUUAUCCCUAUUUAUAUUUAUUGUUAUUGUUAUUGUUAUA (ssRNA) [50 nt RNA] | – | – | binding result ([4]; label: 5'-FAM): binds
